{"source": "patent US9434716B2", "about": "“Antigen binding proteins” (Glaxo Group Limited, priority 2011, dated 2016)", "molecules": {"B1": {"name": "SAP-K: mouse IgG2a monoclonal anti-human SAP antibody, VH SEQ ID NO:17, VL SEQ ID NO:19 (antibody, V domains shown)", "VH": "QVQLQQPGAELIKPGASVKLSCKASGYTFTSYWMHWVKQRPGQGLEWIGMIHPNSVNTNYNEKFKSKATLTVDKSSSTAYMQLNSLTSEDSAVYYCARRNDYYWYFDVWGTGTTVTVSS", "VL": "DIVMTQSQKFMSTSVGDRVSVTCKASQNVNSNVAWYQQKPGQSPKALIYSASYRYSGVPDRFTGSGSGTDFTLTITNVQSEDLAEYFCQQCNNYPFTFGSGTKLEIK"}, "B2": {"name": "SAP-K H1L1: humanised SAP-K, VH SEQ ID NO:38, VL SEQ ID NO:42 (antibody, V domains shown)", "VH": "QVQLVQSGAEVKKPGSSVKVSCKASGYTFTSYWMHWVRQAPGQGLEWMGMIHPNSVNTNYNEKFKSRVTITADKSTSTAYMELSSLRSEDTAVYYCARRNDYYWYFDVWGQGTLVTVSS", "VL": "DIQMTQSPSSLSASVGDRVTITCKASQNVNSNVAWYQQKPGKAPKALIYSASYRYSGVPSRFSGSGSGTDFTLTISSLQPEDFATYYCQQCNNYPFTFGQGTKLEIK"}, "B3": {"name": "SAP-K H0L1: humanised SAP-K, VH SEQ ID NO:37, VL SEQ ID NO:42 (antibody, V domains shown)", "VH": "B2 VH with Y27G, T30S", "VL": "B2 VL"}, "B4": {"name": "SAP-K H2L1: humanised SAP-K, VH SEQ ID NO:39, VL SEQ ID NO:42 (antibody, V domains shown)", "VH": "B2 VH with M48I, V68A", "VL": "B2 VL"}}, "key": {"[1]": {"conditions": "initial clinical studies; cited from earlier work"}, "circulating SAP": {"target": "T1, circulating SAP (Homo sapiens, UniProt P02743)", "T1 construct": "host or cells: circulating plasma protein in vivo", "T1 sequence (P02743 20-223)": "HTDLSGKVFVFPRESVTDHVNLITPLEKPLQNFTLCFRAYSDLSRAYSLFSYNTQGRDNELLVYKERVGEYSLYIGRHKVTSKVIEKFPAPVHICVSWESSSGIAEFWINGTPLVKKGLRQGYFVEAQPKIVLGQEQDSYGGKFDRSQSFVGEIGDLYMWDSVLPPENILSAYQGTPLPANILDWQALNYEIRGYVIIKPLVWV", "conditions": "for as long as the drug is administered; cited from earlier work"}, "human SAP [2]": {"target": "T2, human SAP (Homo sapiens, UniProt P02743)", "T2 construct": "from tissue; host or cells: natural human SAP, purified", "T2 sequence (P02743 20-223)": "as above", "experiment": "Biacore kinetics, human SAP captured on immobilised O-phosphoethanolamine", "assay_type": "binding", "conditions": "for binding with respect to H3L0: amino acid scan at position 91 of SAP-K L0 light chain", "description": "O-phosphoethanolamine was immobilised on a Biacore CM5 chip by primary amine coupling in accordance with the manufacturer's instructions. Human SAP was then captured on the surface in the presence of calcium chloride, in order to replicate in the Biacore system in vitro, the precise orientation of SAP molecules bound to amyloid fibrils in vivo. Anti SAP antibodies were then passed over this surface at 256, 64, 16, 4, 1 nM and a binding sensorgrams obtained. Analysis was carried out at 25° C. using 4% BSA, 10 mM Tris, 140 mM NaCl, 2 mM CaCl2, 0.05% surfactant P20, 0.02% Na N3, pH 8.0 as running buffer. […] Data generated were double referenced with a buffer injection over the human SAP surface and analyzed using the bivalent analyte model in the Biacore T100 evaluation software."}, "human SAP [3]": {"target": "T2, human SAP", "experiment": "Human SAP binding ELISA, SAP-K and SAP-E hybridoma antibodies", "conditions": "1 μg/mL lower density coating of human SAP", "description": "1 μg/mL or 5 μg/mL human SAP was directly immobilised onto an ELISA plate and blocked with 1% BSA/TBS plus 0.05% TWEEN20. Anti-SAP antibodies from purified material were titrated across the plate. Bound antibody was detected by treatment with a horse-radish peroxidase (HRP)-conjugated rabbit-anti-mouse IgG antibody (Dako, P0260). The ELISA was developed using O-phenylenediamine dihydrochloride (OPD) peroxidase substrate (Sigma, P9187)."}, "[4]": {"system": "mice with systemic AA amyloidosis", "experiment": "SAP-K in clearing amyloid deposits, mouse AA amyloidosis model (Example 15)", "assay_type": "in vivo", "conditions": "lower doses of 1 mg, 0.5 mg and 0.1 mg per mouse", "description": "AA amyloidosis was induced and confirmed in wild-type C57BL/6 mice as detailed in Example 10 above. After loading the amyloid deposits with human SAP also detailed in Example 10, groups of mice were treated with 50 mg per mouse of total IgG as the whole IgG fraction (batch 2866) of the sheep polyclonal anti-human SAP antiserum providing a dose of 7 mg of actual anti-SAP antibody, […], and, as a negative control, isolated purified monoclonal mouse IgG2a antibody specific for an unrelated human antigen and unreactive with either human SAP or any murine antigen. All mice were killed 17 days later for estimation of amyloid load by Congo red staining."}, "human SAP [5]": {"target": "T2, human SAP", "experiment": "Western blotting and fragment epitope mapping (CNBr, chymotrypsin)", "assay_type": "binding", "from_the_text": "This is consistent with the kinetic stability and resistance to denaturation of SAP (Manning, M. and Colón, W. (2004) Biochemistry, 43: 11248-11254).\nB, SDS-PAGE analysis of SAP cleaved with CNBr. […] These were precisely confirmed by mass spectrometry. […] C, SDS-PAGE analysis of SAP digested with chymotrypsin. Left panel: Coomassie blue stain; lane 1, untreated control SAP; lane 2, SAP after chymotrypsin digestion, showing the expected major fragments corresponding to residues 1-140 and 145-204. These were precisely confirmed by mass spectrometry. Right panel: Western blot with SAP-E showing intense staining of intact untreated SAP in lanes 1 (500 ng loaded) and 2 (100 ng), and also residual intact SAP in lanes 3 and 4 which contained the chymotrypsin digested SAP at different loadings. Very weak binding of SAP-E to the residue 1-140 fragment is seen only in lane 3 which was most heavily loaded. […] D, Sequence comparison between human SAP (h) and mouse SAP (m) for residues 136-147. Top panel, differences indicated above by residues shown in black in the murine sequence. Bottom panel, position of this extended loop with 140Y at its apex shown in white in the 3D subunit structure of human SAP. The different residues in the murine sequence are shown in black. The grey spheres represent the calcium atoms bound in the ligand binding pocket."}, "native human SAP": {"target": "T3, native human SAP (Homo sapiens, UniProt P02743)", "T3 construct": "against both isolated pure human SAP and whole human serum; from tissue; host or cells: whole human serum, and isolated pure human SAP", "T3 sequence (P02743 20-223)": "as above", "experiment": "Double immunodiffusion in agarose gel", "assay_type": "binding", "conditions": "isolated pure human SAP and whole human serum"}, "human SAP [6]": {"target": "T2, human SAP", "experiment": "Competition ELISA with chimeric anti-SAP mAb", "assay_type": "binding", "conditions": "human SAP coated at 5 μg/mL; purified murine mAb", "from_the_text": "A constant concentration of chimeric anti-SAP mAb was mixed with serial diluted (1:1) amounts of mouse anti-SAP mAbs. Plates were washed and the amount of chimeric antibody bound to the immobilised human SAP was detected using goat anti-human Kappa Light chain peroxidase conjugate (Sigma, A7164). The ELISA was developed using O-phenylenediamine dihydrochloride (OPD) peroxidase substrate (Sigma, P9187)."}, "human SAP [7]": {"target": "T2, human SAP", "experiment": "Biacore (BIAcoreX), human SAP covalently immobilised on the chip", "assay_type": "binding", "conditions": "mean and SD of 3 replicate measurements"}, "human SAP [8]": {"target": "T2, human SAP", "experiment": "Binding of mouse monoclonals to immobilised human SAP in vitro", "from_the_text": "SAP-E and SAP-K are from two groups of anti-SAP monoclonals, each group having been tested separately for their binding to human SAP in vitro.\nSAP-K was selected from among the 6 different, most avidly binding, mouse IgG2a monoclonals, derived by standard techniques from immunization with purified human SAP and a conventional fusion to produce hybridomas which were cloned by routine methods. […] This was the case regardless of whether the human SAP had been directly immobilised on plastic surfaces by non-specific adherence or by covalent attachment, or by the specific calcium dependent binding of SAP to immobilised ligands, whether amyloid fibrils or the small molecule ligand, phosphoethanolamine. SAP-K also bound well to directly immobilised SAP in the presence or absence of calcium, and if the SAP had previously been complexed with CPHPC and then covalently ‘fixed’ in the decameric SAP-CPHPC complex (Pepys, M. B. et al (2002) Targeted pharmacological depletion of serum amyloid P component for treatment of human amyloidosis. Nature, 417: 254-259; Kolstoe, S. E. et al (2009) Molecular dissection of Alzheimer's disease neuropathology by depletion of serum amyloid P component. Proc. Natl. Acad. Sci. USA, 106: 7619-7623). SAP-E also bound well to human SAP in all these different configurations."}, "human SAP [9]": {"target": "T2, human SAP", "experiment": "Biacore off-rate ranking, SAP immobilised on C1 chip", "assay_type": "binding", "conditions": "culture supernatants, chimera purified at […], single curve, for ranking, 25° C.", "description": "Human and cynomologus monkey SAP were immobilised on a Biacore C1 chip by primary amine coupling in accordance with the manufacturer's instructions. […] All runs were double referenced with a buffer injection for purified sample or media for the supernatant samples over the human and cyno SAP surfaces. Analysis was carried out at 25° C. using HBS-EP buffer. […] Data were analysed using the 1 to 1 dissociation model within the Biacore T100 evaluation software.\nThe data generated in Tables 6a and 6b show off-rates (kd) of the humanised SAP-E and SAP-K antibody supernatants respectively. The values were based on a single curve and used for ranking purposes between the different constructs for binding to human SAP. […] The SAP-E humanised L1 light chain was the best light chain variant and combination of the L1 with the H1 heavy chain variant gave a humanised antibody with an acceptable off-rate whilst keeping the number of back mutations to a minimum."}, "[10]": {"conditions": "CM5 chip, calcium, bivalent analyte model, 25° C., for comparison only, avidity effect"}}, "note": "Positions count from the first letter of the chain named. “Also recorded” adds a separate entry of the source."}
{"molecule": "O=C(O)[C@H]1CCCN1C(=O)CCCCC(=O)N1CCC[C@@H]1C(=O)O", "note": "[CPHPC, (R)-1-[6-[(R)-2-Carboxy-pyrrolidin-1-yl]-6-oxo-hexanoyl]pyrrolidine-2-carboxylic acid]", "values": [{"measurement": "effect on amyloid", "setting": "[1]", "result": "did not produce amyloid regression"}, {"measurement": "depletion of circulating SAP", "setting": "circulating SAP", "result": "depletes almost all circulating SAP"}]}
{"molecule": "glycine", "values": [{"measurement": "binding with respect to H3L0", "setting": "human SAP [2]", "result": "improved binding with respect to H3L0, but to a lesser extent than alanine"}]}
{"molecule": "serine", "values": [{"measurement": "binding with respect to H3L0", "setting": "human SAP [2]", "result": "improved binding with respect to H3L0, but to a lesser extent than alanine"}]}
{"molecule": "valine", "values": [{"measurement": "binding with respect to H3L0", "setting": "human SAP [2]", "result": "improved binding with respect to H3L0, but to a lesser extent than alanine"}]}
{"molecule": "B1", "values": [{"measurement": "binding to the immobilised human SAP", "setting": "human SAP [3]", "result": "greater binding than the SAP-E"}, {"measurement": "effect on amyloid deposits", "setting": "[4]", "result": "no significant effect"}, {"measurement": "binding to native human SAP in western blotting", "setting": "human SAP [5]; after agarose gel electrophoresis in physiological buffers", "result": "bound"}, {"measurement": "binding to human SAP in western blotting from reduced SDS-PAGE", "setting": "human SAP [5]; denatured human SAP", "result": "only recognises native human SAP"}, {"measurement": "binding to native human SAP (immunoprecipitation)", "setting": "native human SAP", "result": "bound apparently equally well to native human SAP"}, {"measurement": "competition with SAP-E chimera", "setting": "human SAP [6]", "result": "no competition"}, {"measurement": "ka", "setting": "human SAP [2]; [10]", "result": 300000, "unit": "M⁻¹ s⁻¹"}, {"measurement": "kd", "setting": "human SAP [2]; [10]", "result": 0.000219, "unit": "s⁻¹"}, {"measurement": "ka", "setting": "human SAP [7]", "result": "3.18 ± 5 × 10^4 M^−1 sec^−1"}, {"measurement": "kd", "setting": "human SAP [7]", "result": "1.7 ± 0.9 × 10^−5 sec^−1"}, {"measurement": "binding to human SAP in vitro", "setting": "human SAP [8]; compared within the group of monoclonals", "result": "strongest binding to SAP, within their groups; also recorded: greatest binding to immobilised human SAP"}, {"measurement": "binding to immobilised human SAP", "setting": "human SAP [8]; human SAP sparsely available, plates coated with 1 μg/ml", "result": "much more SAP-K than SAP-E became bound"}]}
{"molecule": "B2", "values": [{"measurement": "kd", "setting": "human SAP [9]", "result": 0.0296, "unit": "s⁻¹"}]}
{"molecule": "B3", "values": [{"measurement": "kd", "setting": "human SAP [9]", "result": 0.0479, "unit": "s⁻¹"}]}
{"molecule": "B4", "values": [{"measurement": "kd", "setting": "human SAP [9]", "result": 0.0321, "unit": "s⁻¹"}]}
